We go through 21 proteins from patent US20250326867A1, “De novo designed chlorophyll special pair proteins” (University of Washington, priority 2024, published 2025).

This series deals with the molecule itself. In words: size-exclusion chromatography, self-association (homodimer). The method, then: FIG. 7. Size exclusion chromatography (SEC) traces of purified SP apo-proteins. Proteins were injected as 0.5 mL aliquots onto a Superdex™ 200 Increase 10/300 GL column (Cytiva Life Sciences). The narrow, isolated peaks indicate that the samples contain monodisperse protein. Running buffer was 150 mM NaCl, 10 mM Tris at pH 8. Proteins were purified by Ni-NTA and one round of SEC prior to collecting the data shown.
Proteins were purified by Ni-NTA and size-exclusion chromatography (SEC) (FIG. 7). […] A slightly lower predicted radius of gyration (Rg) value compared to experimental SAXS data is likely due to a dense hydration shell around the highly charged SP proteins (Svergun et al. 1998; Kim et al. 2016). The far ultraviolet (UV) circular dichroism (CD) spectra of three SP proteins that expressed in high yield (≥140 mg/L) show the proteins are highly α-helical with and without the synthetic Chl a derivative, Zn pheophorbide a methyl ester (ZnPPaM). Thermal denaturation curves monitored by the CD signal at 222 nm indicate that all three proteins are highly thermostable in the apo- and holo-states (FIG. 2).

B1: SP1 (designed binder)
chain: GGDSRELIARYQILLAELAAIRADIAAERTGDPYVRKLARELKRLAQEAAEEVKRDPSSSDVNMALLLILLMIELAVRALEAAERTGDPEVRELAAELVWLAVEAAEEVQRNPSSSDVWLALHLIMLAIWAAVAALEAAERTGDPEVRELARELVRLAVEAAEEVQRNPSSKEVYMALLLILIAILEAVLSLLRAERSGDPEKREKARERVREAVERAEEVQR
notes: De novo designed subunit of a C2 homodimer
Turning to B1, the binding result is given as “binds”.

B2: tj79C2-H65A (designed binder)
chain: SGSGSREDELLARYLILLAELAAEEADIAAERTGDPRVRELARELKRLAQEAAEEVKRDPSSSDVNHALHLIVLAILIAVEALEAAERTGDPEVRELARELVRLAVEAAEEVQRNPSSSDVLKALILILLAIIQAVKALEAAERTGDPEVRELARELVRLAVEAAEEVQRNPSSKEVTMALLLILIAILEAVLSLLRAERSGDPEKREKARERVREAVERAEEVQRDPSGW
notes: Designed homodimer subunit, after TEV cleavage
Consider B2, for which the binding result was “binds”.

B3: tj79C2-H65B (designed binder)
chain: SGSGSREDELFARYLILLAELAAERADIAAERTGDPRVRELARELKRLAQEAAEEVKRDPSSSDVNLALHLIVLAILAAVEALEAAERTGDPEVRELARELVRLAVEAAEEVQRNPSSSDVLKALMLIVLAILQAVQALEAAERTGDPEVRELARELVRLAVEAAEEVQRNPSSKEVYMALLLILIAILEAVLSLLRAERSGDPEKREKARERVREAVERAEEVQRDPSGW
notes: as for B2
In the case of B3, the binding result was “binds”.

B4: D2S (designed binder)
chain: SGSGSEEEELERLKEQLKIWQKLIKLILEQDPNDEQIRRILEQAEEIIQKLQEDPNNEELQRLIQLLFNLVAIIFSIKQILELDPNDEQIRRILEQAKEIIQKLQEDPNNEELFLLAHMLFALVAIILLIKLMLEQDPNDELIREILEQAKEIIQKLQEDPNNAELAMLIALLLSLVLWIWFMKFQLEQDPNDEEIRRQLEQLEERIRRTLE
notes: as for B2
Turning to B4, the binding result is reported as “binds”.

B5: JH (designed binder)
chain: SGSSEELAREAREAAIRLAQASTKLMEAMIRGDLKELAEALIELARAVQELARVAKEYGNDELAKLAAFLAAHIAMLAIWVLILAIREGDDEVRELAKTAIKLASTAAKIVLDALPTAEEVRIITLLAKLAEEAADKKNEDSALAVLIAAMAVLIALAALEAAQRAGIEEAEKAARLLLKLAGEAARKKNPEEAKAVYNAALLVSIALLLLQKAKRAGSEETRRLAEEMLRQALERARKKN
notes: as for B2
With B5, the binding result is given as “binds”.

B6: tj79C2-H65C (designed binder)
chain: SGSGSREDELIARYLILLAELAAERADIAAERTGDPRVRELARELKRLAQEAAEEVKRDPSSSDVFMALHLIVLAIQIAVKALEAAERTGDPEVRELARELVRLAVEAAEEVQRNPSSSDVFLALLLIVTAIMLAVEALEAAERTGDPEVRELARELVRLAVEAAEEVQRNPSSKEVLMALLLILIAILEAVLSLLRAERSGDPEKREKARERVREAVERAEEVQRDPSGW
notes: as for B2
On to B6, for which the binding result is given as “binds”.

B7: SP2 (designed binder)
chain: SGSGSSDEEFKFLATEAKMLITAAERLAGTDPELQEMVALIKKELEQAERTFRNGDKSEAQRQLEFVLTAARAVMNVAAAANAAGTDPELIEMVLRILKQLKEAIRTFQNGDQEEAETQLRFVLRAAIAVAVVAAALVLAGTDPELQEMVKQILEELKQAIETFARGDKEKALTQLLFVAWAAHAVAMIAAAANLAGTDPRLQQQVKEILEKLKEAIETFQKGDEEQAFRQLAEVLAEAALVALRAALTN
notes: as for B1
With B7, the binding result was “binds”.

B8: D2K (designed binder)
chain: SGSGSREKELKQLISNLQILLLILLSQDPNNELVRKLQEKIKEAEEQGDPRRLKLIWWILALINILQALEQEDPNNELVKRLKELIKRALEEGDPRLLQLILLILHLIWLLQALEKEDPNNELVKRLKKLIEEALKEGDPRKLWQILALLLWIAQIQKLKKQDPNNELIKRAEETLEQSLKT
notes: as for B2
For B8, the binding result is recorded as “binds”.

B9: D2T (designed binder)
chain: SGSGSEEEELERLKEQLKIWQKLIKLILEQDPNDEQIRRILEQAEEIIQKLQEDPNNEELQRLIQLLFQLVLGIFIIKQILELDPNDEQIRRILEQAKEIIQKLQEDPNNEELYRLQGLLGMLVGIILLIKLMLEQDPNDELIREILEQAKEIIQKLQEDPNNQELLSLIHLLLALVLWIWFMKFQLEQDPNDEEIRRQLEQLEERIRRTLE
notes: as for B2
Take B9: the binding result is recorded as “binds”.

B10: D2N (designed binder)
chain: SGSGSEEEEIRLAQLTIQIIQYQVEKNGDEQLLRLIQEITEQLQKEGDERLIRILNAMFTIIWILEAVEKNGDEELLRLIQEITEKLARQGDERLIKILSAMAGIIWILEIVKKNGDEQLLRLIREITRKLAEEGDERLIQILANMHSIIISSEELEKNGDEELLQKLRELLEKIAKELEHHHHHH
notes: as for B2
In the case of B10, the binding result is given as “binds”.

B11: D2M (designed binder)
chain: SGSGSEEEQIRLAQLAIQIIQYQVEKNGDEQLLRLIQEITEQLQKEGDERLIAILSTMFGIIWILEQVEKNGDEELLRLIQEITEKLARQGDERLIQIGAAMLAIIIILEQVKKNGDEQLLRLIREITRKLAEEGDQRLIWILHAMMAIIMSSEELEKNGDEELLQKLRELLEKIAKE
notes: as for B2
Turning to B11, the binding result was “binds”.

B12: D2Q (designed binder)
chain: SGSGSEEEEKRLIEKMSKFIWWFAQQLGDERILRAVEKLQQEIKENSPTPETYMTLGNLLLSLLIWWAAQQLGDEKILEAVERLLQQIEENSPTPETHLTLAILMSALAIWQQAQKLGDEDILEAVERLLEEIQRNSPTPSTMTKLLWLALLLNNWEELQKQGDEEQLRSSEKAMKELKE
notes: as for B2
Turning to B12, the binding result was “binds”.

B13: tj79C2-H62A (designed binder)
chain: SGSGSRYDELNARLLILLAELAAERADIAAERTGDPRVRELARELKRLAQEAAEEVKRDPSSWSVLHALWLIVVAIEAAVRALEAAERTGDPEVRELARELVRLAVEAAEEVQRNPSSWDVFMALLLIVFAIEAAVRALEAAERTGDPEVRELARELVRLAVEAAEEVQRNPSSKEVDMALLLILIAILEAVLSLLRAERSGDPEKREKARERVREAVERAEEVQRDPSGW
notes: as for B2
For the protein B13, the binding result is on record as “binds”.

B14: tj79C2-H65D (designed binder)
chain: SGSGSREDELQARLLILLIELAAERADIAAERTGDPRVRELARELKRLAQEAAEEVKRDPSSSDVWLALHLIVIAILIAVEALEAAERTGDPEVRELARELVRLAVEAAEEVQRNPSSSDVLKALMLILIAILLLLEALEAAERTGDPEVRELARELVRLAVEAAEEVQRNPSSKEVQMALLLILIAILEAILSLLRAERSGDPEKREKARERVREAVERAEEVQRDPSGW
notes: as for B2
Regarding B14, the binding result is “binds”.

B15: tj79C2-H65E (designed binder)
chain: SGSGSREDELWARLLILLIELAAERADIAAERTGDPRVRELARELKRLAQEAAEEVKRDPSSSDVLLALHLIVIAILIAVEALEAAERTGDPEVRELARELVRLAVEAAEEVQRNPSSSDVLIALMLILIAILLLLEALEAAERTGDPEVRELARELVRLAVEAAEEVQRNPSSKEVQMALLLILIAILEAILSLLRAERSGDPEKREKARERVREAVERAEEVQRDPSGW
notes: as for B2
Regarding B15, the binding result was “binds”.

B16: D2L (designed binder)
chain: SGSGSREKELKQLISNLQILLLILLSEDPNNELVRKLQEKIKEAEEQGDPRRLKLIWWILNLIQMLQQLEQEDPNNELVKRLKELIKRALEEGDPRLLLLIHIILALIWLLQALEKEDPNNELVKRLKKLIEEALKEGDPRKLIQIALLLTWIATIQRLKKQDPNNELIKRAEETLEQSLKT
notes: as for B2
As to B16, the binding result was “binds”.

B17: JG (designed binder)
chain: SGSGSSDELEARLLIISANLQAEMAQIAAERTGDPRVRELARELKRLAQEAAEEVKRDPSSSEVNQNLTLISMAIALAVLALLLARKAGDEEARDIAREAVEVAVRAAELILEGRDEQRAWTLFLIAHALLLAVLAARLGNSEVAELAVKVLRLAKELEKLLPSEIALFVVSMIGMAALQAAMAASGGQEDYARDALRRLEEAIREAEENRSKESLEKVMEEAIRAYEQALRALAGG
notes: as for B2
For B17, the binding result is recorded as “binds”.

B18: JF (designed binder)
chain: SGSGSSDELQARFLILSAKLQAEMAQIAAERTGDPRVRELARELKRLAQEAAEEVKRDPSSSEVNSNLALISMAIALAVLALLLARKAGDEEARDIAREAVEVAVRAAELILEGRDDQRAWTLWLIAHALLMAVYAARLGNSEVAELAVKVLRLAKELEKLLPSEEALFVVSMIGLAALQAAMAAAGGQEDYARDALRRLEEAIREAEENRSKESLEKVEEEGIEAMEQALRAIAGG
notes: as for B2
In the case of B18, the binding result is “binds”.

B19: D2O (designed binder)
chain: SGSGSEEEEIRLAQLAIQIIQYQVEKNGDEQLLRLIQEITEQLQKEGDERLIRILLAMFAIILILEHVEKNGDEELLRLIQEITEKLARQGDERLIRILIAMAGIIWILELVKKNGDEQLLRLIREITRKLAEEGDERLIQILLAMHAIIISSEQLEKNGDEELLQKLRELLEKIAKE
notes: as for B2
Turning to B19, the binding result is “binds”.

B20: D2P (designed binder)
chain: SGSGSEEEEKRLIEKMSKFIWWFAQQLGDERILRAVEKLQQEIKENSPTPETFMTLINLLLSLLIWWAAQKLGDEKILEAVERLLQQIEENSPTPETHMTLAALAQSLAIWQQAQKLGDEDILEAVERLLEEIQRNSPTPSTLIKLTWLLLLLNNWQELQKQGDEEQLRSSEKAMKELKE
notes: as for B2
In the case of B20, the binding result is recorded as “binds”.

B21: D2R (designed binder)
chain: SGSGSEEEELKRLQTLIKYLQLLIQNAKWQNPDDELLRQVEELIEEMKKRLEENPNSQEDQALLKLLITIIALIIMILWLKSENPDDELLRQVEELIKEMIERLKENPNSQEDQALLQLLHAILGLILLIQQLKKQNPDDELLQQVEELIEEMIKRLKENPNSEKDQILLSFLALSLLSIFLIQTQKKQNPDDERLKQWEKQIKESIESSKE
notes: as for B2
In the case of B21, the binding result is on record as “binds”.
